Source: US20070292447A1

Biological target: CS40 anti-ManLAM monoclonal antibody
Experiment: competitive ELISA, ManLAM-coated plate, CS40 mixed with peptide; at 50 µg/ml peptide

ISLTEWSMWYRH [B11 synthetic peptide (…)]
decrease in OD (inhibition of CS40 binding to ManLAM): 100%
